T1: HCV bt-151-171 (Peptide 3, HCVc 151-171) (Hepatitis C virus (numbering per HCV-1), biotin (carboxy-terminal per; N-terminal per))
T1 peptide: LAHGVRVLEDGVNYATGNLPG

T2: HCV bt-134-154 (Peptide 1, HCVc 134-154) (Hepatitis C virus (numbering per HCV-1), biotin (carboxy-terminal per; N-terminal per))
T2 peptide: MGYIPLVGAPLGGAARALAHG

T3: HCV bt-141-161 (Peptide 2, HCVc 141-161) (Hepatitis C virus (numbering per HCV-1), biotin (carboxy-terminal per; N-terminal per))
T3 peptide: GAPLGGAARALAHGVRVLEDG


Legend:
Assay in all cases: EIA, captured mAb + biotin peptide
[1] = target: T1, HCV bt-151-171 (Peptide 3, HCVc 151-171)
[2] = target: T2, HCV bt-134-154 (Peptide 1, HCVc 134-154)
[3] = target: T3, HCV bt-141-161 (Peptide 2, HCVc 141-161)

Binder	Reactivity (OD 492 nm) [1] [OD units]	Reactivity (OD 492 nm) [2] [OD units]	Reactivity (OD 492 nm) [3] [OD units]
HCV 208B-178 (antibody, V domains shown) VH: DVKLVESGGGLVKLGGSLKLSCAASGFTFSSYYMSWVRQTPEKRLELVAAINSNGGSTYYPDTVKGRFTISRDNAKNTLYLQMSSLKSEDTALYYCARHGGLGRRDWYFDVWGAGTTVTVSS VL: DIVLTQSPASLAVSLGQRATISCRASESVDNYGISFMHWYQQKPGQPPKLLIYRASNLESGIPARFSGSGSRTDFTLTINPVETDDVATYYCQQSNKDPFTFGSGAKLEIKR	1.69	0.1	0.07
HCV 208B-327 (antibody, V domains shown) VH: EVQLVESGGGLVKPGGSLKLSCAASGFTFSDSYMYWVRQTPDQRLEWVATISDGGSYTFYPDSVKGRFTISRDNAQNNLYLQMSSLKSEDTAMYYCASPHAGYFGWFAYWGRGTLVTVSA VL: DIVMTQAAFSNPVTPGTSVSISCRSSKSLLHSNGITYLYWYLQKPGQSPQLLIYQMSKIASGVPDRFRSSGSGTDFTLRISRVEAADVGVYYCAQNLELPWTFGGGTKLEIKR	0.49	0.07	0.05
HCV 208B-517 (antibody, V domains shown) VH: QVQLKQSGPGLVQPSQSLSITCTVSGFSLITHGVHWVRQSPGKGLEWLGVIWSGGSTDYNAAFISRLSISKDTSKSQVFLKMSSLQADDTAIYYCARNGGATAFDYWGQGTTLTVSS VL: DIVMTQSPATLSVTPGDRVSLSCRASQSISDYLHWYQQKSHESPRLLIKYASQSISGIPSRFRGSGSGSHFTLSINSVEPEDVGVYYCQNGHSFPWTFGGGTKLEIKR	0.7	0.1	0.41
HCV 208B-822 (antibody, V domains shown) VH: QVQLKQSGPGLVQPSQSLSITCTVSGFSLITYGVHWVRQSPGKGLEWLGVIWGGGSTGYNAAFVSRLNITKDNSKSQVFFKMNSLQPDDTAIYYCARNGGATVFDYWGQGTTLTVSS VL: DIVMTQSPATLSVTPGDRVSLSCRASQTISDYLHWYQQKSHESPRLLIKYASQSISGIPSRFSGSGSGSHFTLSINSVEPEDVGVYYCQNGHSFPWTFGGGTKLEIKR	0.07	0.08	1.35
HCV 208B-353 (antibody, V domains shown) VH: EVQLVESGGDLVKPGGSLKLSCAASGFTFNHYGMSWVRQPPDKRLEWVATISSGGGYTYYPDSVKGRFTISRDNAKDTLSLQMSSLRSGDTAVYYCASLYGSLFAYWGQGTLVTVSA VL: DIVMTQSQKFMSTTVGDRVRVTCKASQNVGTAVAWYQQKPGQSPKLLIYSASNRYTGVPDRFTGSGSGTDFTLTITNMQSEDLADYFCQQYSTYPLTFGSGAKLEIKR	0.07	0.07	2.47
HCV 208B-395 (antibody, V domains shown) VH: QVQLQQSGAGLAKPGASVKMSCKASGYTFTANKMHWTKQRPGQGLEWIGYIDPSSGYTQYNHKIQDKATLTADTSSSTAYMQLSSLTFEDSAVYYCTNFAYWGQGTLVTVSA VL: DIVLTQSPATLSVTPGDRVSLSCRASQRIYNYLHWYQQKSHESPRLLIKYASQSISGIPSRFSGSGSGTDFILTINSVETEDFGMYFCQQSNSWPLTFGAGTKLELRR	3.69	0.54	0.13
HCV 208B-826 (antibody, V domains shown) VH: DVQLVESGGGLVQAGGSRKLSCAASGFPFSSFGMHWVRQAPEKGLEWVASISSRTSKIYYADNLKGRFTISRDNPKNTLFLQMTSLGSEDTAMYYCVRSVFGNSYWFFDVWGAGTTVTVSS VL: DIVLTQSPATLSVTPGDRVSLSCRASQRIYNYLHWYQQKSHESPRLLTKYASQSISGIPSRFSGSGSGTDFILTINSVETEDFGMYFCQQSNSWPLTFGAGTKLELRR	0.08	0.53	1.35
HCV 208B-793 (antibody, V domains shown) VH: EVKLVESGGGLVQPGGSLKLSCAASGFTFSSYAMSWVRQTPERRLEWVTYISNGGGSTYYSDTVKGRFTFSRDNAKNTLYLQMSSLKSEDTAMYYCARHGLGRTGFASWGQGTLVTVSA VL: DIVMTQSHKFMSTSVGDRVSITCKASQDVGTAVAWYQQKPGQSPKLLIYWASTRHTGVPDRFTGSGSGTDFTLTISNVQSEDLADYFCQQYSNYLTFGAGTKLEVKR	0.09	0.09	0.72
HCV 208B-612 (antibody, V domains shown) VH: EVQLQQSGPELVKPGASVKMSCKASGYRFTSYVMHWVRQKPGQGLEWIGYIDPHNDDTKYSEKFRGKATLTSDKSSTTAYMELSSLTSEDSAVYYCVRYSYDRDYSPMDYWGQGTSVTVSS VL: QIVLTQSPTLMSASPGEKVTMTCSASSTVTYIYWYQQKPGSSPRLWMYDTFNLVSGVPARFSGSRSGTSYFLTISSMEGEDAATYYCQQYSDSPYTFGGGTKLEIKR	0.15	3.05	3.04
HCV 208B-471 (antibody, V domains shown) VH: QGQLQQSGPVLVKPGASEILYCKTSGFTFSSTYISWLKQKPGQSLEWIAWIYAGTGATNYNQKFTGKAQLTVDASSNTAYMHFSGLTPEDSAIYYCAISGAGVYWGQGTLVTVSA VL: DVVMTQTPLSLPVSLGDQASISCRSSQSLLHSNGNTYLEWYLQKPGQSPNLLIYNVSNRFSGVPDRFSGSGSGTDFALKISRVGAEDLGVYYCFQGSHVPLTFGAGTKLELKR	0.08	1.62	0.11
HCV 208B-515 (antibody, V domains shown) VH: QVQLQQPGAELVKPGASLKLSCRASGYTFTSYWIHWVKQRPGQGLEWIGEIDPSDSYTNYNQKFKGKATLTVDKSSRAAYMQLSSLTSEDSAVYYCARHYYGVFDSWGQGTKLTVSS VL: QIVFTQYPAIMSASLGERVTMTCTASSSVTSSYLHWFQQKPGSSPKLWIYSTSNPGSGVPARFSGRGSGTSYSLSISSMEAEDAATYYCLQFHRSPWTFGGGTKLEIRR	0.06	0.51	0.13
HCV 208B-189 (antibody, V domains shown) VH: QVHLQQSGAELAKPGASVQMSCKASGYTFTANKMHWARQRPRQGLEWIGYIDPASGYTEYNQKIKDRATLTADKSSSTAYMQLSSLTSEDSAVYYCTNFAYWGQGTLVTVST VL: not shown	3.95	0.55	0.15
HCV 208B-547 (antibody, V domains shown) VH: QVQLQQSGAELAKPGASVKMSCKASGYTFTSNKMHWAKQRPGQGLEWIGYIDPSSGYTEYNQKIKDKATLTADKSSSTAYMQLSSLTSEDSAVYYCTNFAYWGQGTLVTVSA VL: EVVLTQSPAITAASLGQKVTITCRASSSVSYMHWYRQKSGTSPQPWIYEISTLASGVPTRFRASGSGTSYSLTISSMEAEDAAIYYCQQWNYPLTFGAGTKLELKR	2.9	0.12	0.08
HCV 208B-672 (antibody, V domains shown) VH: EVKLVESGGSLVQPGGSLKLSCAASGFNFNTYAMSWVRQTPEKRLEWVAYISNGGGNTYYVDTVKGRFTISRDNAKNTLYLRMSSLKSEDTAMYYCARHGLYWGYSMDYWGQGTSVTVSS VL: DIQMTQSPSSLSASLGERVSLTCRASQDIGGSINWLQQEPDGTIKRLIYATSSLDSGVPKRFSGSRSGSDYSLTISSLESEDFVDYYCLQYASSPPTFGGGTKLEIKR	0.1	0.08	2.79
